For two molecules, binding result and Kd results are on record in patent US20200362021A1 (PHANES THERAPEUTICS, published 2020).

By Kd is commonly meant a measure of binding affinity in units of concentration. Low readings indicate tighter binding, high ones weaker binding.

Read-outs that look alike come from different tables or passages of the source. No end group written: not given here. *: point of attachment. Biotin = O=C1N[C@H]2[C@H](CS[C@H]2CCCCC(=O)*)N1

In one experiment the target is T1, Biotin-APL17.
T1 peptide: Biotin-KFRRQRPRLSHKGPMPF
The experiment in a line: ELISA, peptide on neutravidin plate, mAb 200 ng/ml, A405. The protocol: (§1) FIGS. 1A-1C show binding of anti-apelin mAbs to various biotinylated apelin peptides measured by ELISA. Biotinylated apelin peptides were immobilized on ELISA plates coated with neutravidin and purified recombinant rabbit anti-apelin mAbs were added for binding to the peptides on the plates. The binding was detected by adding a goat anti-rabbit IgG Fc-conjugated to alkaline phosphatase and PNPP substrate, and measured as the absorbance at 405 nm.
(§2) For the binding assay, neutravidin in carbonate coating buffer was coated on high binding ELISA plates at 1 μg/ml overnight. Peptides were added at 4 μg/ml after the plates were blocked with 1% BSA in TBS. After incubation of the plates at room temperature for 60 minutes, the plates were washed and then purified recombinant rabbit antibodies were added at 200 ng/ml. Following rabbit antibody binding to the peptides on the plates at room temperature for 90 minutes, goat anti-rabbit IgG Fc-conjugated to alkaline phosphatase was added, and antibody-antigen binding was detected by adding PNPP substrate and reading absorbance of ELISA plates at 405 nm. Each mAb was assayed in duplicate.
Background: In an ELISA, binding on a coated surface is turned into a signal by an enzyme label.

A further experiment has as its target T2, APL17-Biotin.
T2 peptide: KFRRQRPRLSHKGPMPF-biotin
The description is as above. How it is done: as §1, §2

In experiment [1] the target is T3, apelin peptide 1-7 (QRPRLSH).
T3 peptide: QRPRLSH
The experiment in a line: competition ELISA, captured mAb, peptide competes with apelin-13-biotin, A405.

In experiment [2] the target is T4, apelin peptide 1-8 (QRPRLSHK).
T4 peptide: QRPRLSHK
The description is as above.

Experiment [3] has as its target T5, apelin peptide 1-9 (QRPRLSHKG).
T5 peptide: QRPRLSHKG
The description is as above.

Experiment [4] concerns the target T6, apelin peptide 2-13 (RPRLSHKGPMPF).
T6 peptide: RPRLSHKGPMPF
The description is as above.

The target in experiment [5] is T7, apelin peptide 1-10 (QRPRLSHKGP).
T7 peptide: QRPRLSHKGP
Described as above.

Experiment [6] has as its target T8, 1-4.
T8 construct: also called apelin peptide 1-4 (QRPR)
T8 peptide: QRPR
The description is as above.

Experiment [7] addresses T9, apelin peptide 1-12 (QRPRLSHKGPMP).
T9 peptide: QRPRLSHKGPMP
The experiment is described as above.

In experiment [8] the target is T10, apelin 17 (competition peptide 1-17, KFRRQRPRLSHKGPMPF).
T10 peptide: KFRRQRPRLSHKGPMPF
The experiment is described as above.

Experiment [9] addresses T11, apelin peptide 1-11 (QRPRLSHKGPM).
T11 peptide: QRPRLSHKGPM
The experiment is described as above.

The target in experiment [10] is T12, apelin peptide 1-5 (QRPRL).
T12 peptide: QRPRL
Described as above.

For experiment [11], the target named is T13, apelin peptide 1-6 (QRPRLS).
T13 peptide: QRPRLS
Described as above.

The target of experiment [12] is T14, apelin-13-biotin (…-biotin) (C-terminal biotin).
T14 construct: also called APL13-Biotin
The experiment in a line: SPR (Biacore), apelin-13-biotin on streptavidin chip. The protocol: (§3) Anti-apelin mAbs at four different concentrations (12.5 nM, 25 nM, 50 nM and 100 nM) were captured on the chip surface. The on- and off-rate for antibody-antigen binding were measured, curve fitted and calculated.
In general terms: In SPR one partner is held on a chip, and binding of the other changes the refractive index at the surface.

Experiment [13] addresses T15, pyr-apelin-13-biotin (pE-RPRLSHKGPMPF-biotin) (N-terminal pyroglutamate (pE); C-terminal biotin).
T15 construct: also called pyrAPL13-Biotin
T15 peptide: ERPRLSHKGPMPF
Nature of the experiment: SPR (Biacore), pyr-apelin-13-biotin on streptavidin chip. How it is done:
as §3

In experiment [14] the target is T16, alanine scanning peptide 4A (QRPAL).
T16 peptide: QRPAL
Nature of the experiment: competition ELISA, captured mAb, peptide competes with apelin-13-biotin, A405. The protocol: (§4) Each peptide or control sample was assayed in duplicate for a given mAb.

The target in experiment [15] is T17, alanine scanning peptide 3A (QRARL).
T17 peptide: QRARL
Described as above. How it is done: as §4

The target of experiment [16] is T18, alanine scanning peptide 2A (QAPRL).
T18 peptide: QAPRL
Described as above. The protocol: as §4

The target in experiment [17] is T19, alanine scanning peptide 1A (ARPRL).
T19 peptide: ARPRL
Described as above. How it is done: as §4

For experiment [18], the target named is T20, alanine scanning peptide 5A (QRPRA).
T20 peptide: QRPRA
Described as above. How it is done: as §4

Experiment [19] deals with T3, apelin peptide 1-7 (QRPRLSH). The description is as above.
Experiment [20] addresses T4, apelin peptide 1-8 (QRPRLSHK). Described as above.
Experiment [21] addresses T5, apelin peptide 1-9 (QRPRLSHKG). The experiment is described as above.
In experiment [22] the target is T6, apelin peptide 2-13 (RPRLSHKGPMPF). Described as above.
Experiment [23] has as its target T7, apelin peptide 1-10 (QRPRLSHKGP). The description is as above.
In experiment [24] the target is T8, 1-4. The description is as above.
Experiment [25] concerns the target T9, apelin peptide 1-12 (QRPRLSHKGPMP). Described as above.
Experiment [26] addresses T10, apelin 17 (competition peptide 1-17, …). The experiment is described as above.
Experiment [27] deals with T11, apelin peptide 1-11 (QRPRLSHKGPM). Described as above.
Experiment [28] deals with T12, apelin peptide 1-5 (QRPRL). Described as above.
Experiment [29] concerns the target T13, apelin peptide 1-6 (QRPRLS). The description is as above.

B1: anti-apelin mAb C1 (antibody, V domains shown)
VH: QSLEESGGRLVTPGGSLTLTCTVSGFSLSSYAMDWVRQAPGKGLEWIGVIAPNGATYYPTWARGRFTISKTSTTVDLKMTSLTAADTATYFCATYPIDAGANIWGPGTLVTVSS
VL: DPVLTQTPSSVSAAVGGTVTIGCQSSESVDNNNQLSWYQQKSGQPPKRLMYYVSTLDSGVPSRFKGSGSGTHFTLTISGVQCYDAATYYCQGGYISNLYPFGGGTEVVVK
notes: recombinant rabbit IgG made in HEK293 cells
As to B1, the binding result with Biotin-APL17 is “no binding (tested: 200 ng/ml)”; with APL17-Biotin it was “no binding (tested: 200 ng/ml)”; in experiment [1] it was “binds”; in experiment [2] it was “binds”; in experiment [3] it was “binds”; in experiment [4], “no binding (tested: peptide concentration not stated)”. Besides, the binding result in [5] is recorded as “binds”; with 1-4 [6] it was “no binding (tested: peptide concentration not stated)”; in experiment [7], “binds”; in experiment [8] it was “no binding (tested: peptide concentration not stated)”; in [9], “binds”; in [10], “binds”. The binding result in experiment [11] is recorded as “binds”. Also, the Kd in [12] was 48.9 pM; in experiment [13], 0.154 pM.

B2: anti-apelin mAb C6 (antibody, V domains shown)
VH: QSLEESGGRLVKPDETLTLTCTVSGIDLSNYAMDWVRQAPGKGLEWIGVIAPNRRTYYPTWARGRFTISKTSSTTVDLKMTSLTTEDTATYFCATYPIEPGANIWGPGTLVTVSS
VL: DPVLTQTPSPVSAPVGGTVTIGCQSSESVDYNNQLSWYQQKPGQPPKRLMYYVSTLDSGVPSRFKGSGSGTQFTLTISDLECDDAATYYCQGGYISNIYPFGGGTEVVVK
notes: as for B1
As for B2, the binding result is “no binding (tested: peptide concentration not stated)” in experiment [14]; “no binding (tested: peptide concentration not stated)” in [15]; “no binding (tested: peptide concentration not stated)” in [16]; “no binding (tested: peptide concentration not stated)” in experiment [17]; “no binding (tested: peptide concentration not stated)” in experiment [18]; “no binding (tested: 200 ng/ml)” with Biotin-APL17. Moreover, the binding result with APL17-Biotin is “no binding (tested: 200 ng/ml)”; in experiment [19], “binds”; in experiment [20], “binds”; in [21], “binds”; in experiment [22], “no binding (tested: peptide concentration not stated)”; in experiment [23], “binds”. In addition, the binding result is on record as “no binding (tested: peptide concentration not stated)” in the experiment with 1-4 [24]; “binds” in [25]; “no binding (tested: peptide concentration not stated)” in [26]; “binds” in experiment [27]; “binds” in experiment [28]; “binds” in experiment [29]. Also, the results for the Kd in experiment [12] and in experiment [13] were 5.96 pM and 0.513 pM, respectively.
